The values below come from patent US11827701B2, “IL-6 binding molecules” (argenx BV, priority 2012, dated 2023).

Numbering of substitutions follows the chain as printed.

B1: 55A11d: 28A6 chain-shuffled Fab, periplasmic fraction (antibody, V domains shown)
VH: QVQLVESGGGLVQPGGSLRLSCAASGFTFSNYYMTWVRQAPGKGLEWVSSIYSFSGDTAYADSVKGRFTISRDNAKNTLYLQMNSLKSEDTAVYYCTRNLGGVVVTTNGYDYWGQGTQVTVSS
VL: DIQMTQSPSSLPTSLGDSVTITCQASQSISDELSWYQQKPGQTPKLLIYGASRLQTGVPSRFSGRGSGTSFTLTISGLEAEDLATYYCLQGYSWPFMFGQGTKVELK
B2: 48H1g2, R4: 28A6 chain-shuffled Fab, periplasmic fraction (antibody, V domains shown)
VH: B1 VH
VL: B1 VL with I2V, Q3V, R53K, R65S
B3: 55C11f: 28A6 chain-shuffled Fab, periplasmic fraction (antibody, V domains shown)
VH: B1 VH
VL: B1 VL with M4L, P12S, T13A, R53K, R65S, S93R
B4: 55E10g1: 28A6 chain-shuffled Fab, periplasmic fraction (antibody, V domains shown)
VH: B1 VH
VL: B1 VL with R53K, R65S
B5: 55C1a: 29B11 chain shuffled Fab, periplasmic fraction (antibody, V domains shown)
VH: EVQLVESGGGLVQPGGSLRLSCAASGFTFSSYAMSWVRQAPGKGLEWVSRISSGGISTYYADSVKGRFTISRDNAKNTLYLQMNSLKPEDTAVYYCVRYAWGVQWAFDFWGQGTQVTVSS
VL: ALNFMLTQPPSVSGSPGKTVTISCAGTSSDVGYGNYVSWYQQLPGTAPKLLIYNVNKRASGITDRFSGSKSGNTASLTISGLQSEDEADYYCASYRTGDNAAFGGGTKLTVLG
B6: 55E2b: 29B11 chain shuffled Fab, periplasmic fraction (antibody, V domains shown)
VH: B5 VH
VL: AQSVLTQPPSVSGSPGKTVTISCAGTSSDVGYGNYVSWYQQLPGMAPKLLIYDVNKRASGIADRFSGSKFANTASLTISGLQSEDEADYYCASYKRGDNAVFGGGTKLTVLG
B7: 47C2 (R4): 29B11 chain shuffled Fab, periplasmic fraction (antibody, listed as Lama glama, V domains shown)
VH: B5 VH
VL: ALSYDLTQPPSVSGSPGKTVTISCAGTSSDVGYGNYVSWYQQLPGMAPKILIYDVNKRASGIADRFSGSKSGNTASLTISGLQSEDEADYYCASYRRGETIVFGGGTHLTVLG
B8: 41B5: light chain shuffled Fab of parental 17F10 (antibody, V domains shown)
VH: EVQLQESGPGLVKPSQTLSLTCTVSGGSIATSYYAWSWIRQPPGKGLEWMGVIDYDGDTYYKPSLKSRTSISRDTSKNQFSLQLSSVTPEDTAVYYCARAGLGDSYYLGTYYAMDYWGKGTLVTVSS
VL: QSALTQPPSMSGTLGKTLTISCNGTSSDIGSGDYVSWYQQLPGTTPKLLIEGVTTRASGIPDRFSASKSDNTASLTISGLQSEDEATYYCASYRETNNVVFGGGTHLTVLS
B9: 17F10: antagonistic IL-6-specific Fab clone from immunized llama (antibody, listed as Lama glama, V domains shown)
VH: B8 VH
VL: QAGLTQPPSVSGSPGKTVTISCAGTTSDVGTGNFVSWYQQLPGMAPKLLIYDVNKRASGIADRFSGSKSGNTASLTISGLQSEDEADYYCASYRSLNNVVFGGGTHLTVLG
B10: 48C10: 29B11 chain shuffled Fab, periplasmic fraction (antibody, listed as Lama glama, V domains shown)
VH: B5 VH
VL: AQSVLTQPPSVSGSPGQTVTISCAGTSEDVGYGNYVSWYQQLPGMAPKLLIYDVNKRASGIADRFSGSKSGNTASLTISGLQSEDEADYYCASYRRTIDNIFGGGTHLTVLG

T1 sequence (P05231 30-212): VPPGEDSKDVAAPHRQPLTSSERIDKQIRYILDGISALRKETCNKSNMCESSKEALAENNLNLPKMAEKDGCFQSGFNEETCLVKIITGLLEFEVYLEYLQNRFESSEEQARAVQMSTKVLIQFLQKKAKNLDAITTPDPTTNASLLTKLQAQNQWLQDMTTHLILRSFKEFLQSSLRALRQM

One assay concerns the target T1, eukaryotically produced human IL-6 (Homo sapiens, UniProt P05231).
T1 construct: purchased Humanzyme HZ-1044; host or cells: Human Embryonic kidney cells
The experiment in a line: Surface plasmon resonance (Biacore), eukaryotically produced human IL-6 coated on CM5 chip. Type of assay: binding. Particulars: euk; periplasmic fractions, 28A6 chain-shuffled. The procedure: (§1) The binding kinetics of IL-6-specific Fabs that were able to cross-compete with the B-E8 antibody was assessed using surface plasmon resonance (Biacore). Specifically, biotinylated (prokaryotic) IL-6 was captured on a streptavidin biacore sensor chip (CM5-SA) and different concentrations of purified Fabs were injected during 3 minutes following by a 5 minute wash with buffer. From the washing phase the off-rate (kd) was determined, while from the injection phase the on-rate (ka) was calculated using the concentration and off-rate as parameters. […] The binding kinetics of antagonistic purified Fabs (Table 3) and periplasmic fractions of Fab-expressing bacteria (Table 4) were also evaluated by surface plasmon resonance (Biacore) using both bacterially and eukaryotically produced human IL-6 directly coated on a CM5 chip. The Fabs tested had off-rates between 6×10^−4 and 2×10^−5 s^−1.
(§2) VL chain shuffling was used to improve the affinity of the Fabs 17F10, 18C7, 18C9, 18C11, 20A4, 29B11, 16D2 and 28A6. In this method, the heavy chain of these clones (as a VHCH1 fragment) was reintroduced into the primary phagemid-light chain library (see Example 1). Affinity selections were performed to select for chain shuffled Fabs with an improved affinity for IL-6. The binding kinetics of chain shuffled Fabs were evaluated by surface plasmon resonance (Biacore) using both bacterially and eukaryotically produced human IL-6, and cynomolgus monkey IL-6 (Tables 5-7). The VH and VL amino acid sequences of exemplary IL-6-specific Fabs selected by the VL chain shuffling method are set forth in Table 14 below.
(§3) VH chain shuffling was also used to improve the affinity of the Fab 24D10. In this method, the light chain of 24D10 was reintroduced into the primary phagemid-heavy chain library (see Example 1) and selected using an off-rate assay. In this type of selection, the phage were allowed to bind to antigen on a substrate for 1.5 to 2 hours. At round 2, after 15 washes with PBS-Tween, an additional wash was performed with the presence of excess soluble IL-6. […] This procedure avoids re-binding of such phage to the coated target. […] The binding kinetics of chain shuffled Fabs and the benchmark antibodies, BE8 and GL18, were evaluated by surface plasmon resonance (Biacore) using both bacterially and eukaryotically produced human IL-6 (Tables 8 and 9). The VH and VL amino acid sequences of exemplary IL-6-specific Fabs selected by the VH chain shuffling method are set forth in Table 14 below. […]
(SPR reads the build-up and loss of mass on a sensor chip optically.)
B1 returned a KA of 1.59e+09 M⁻¹, a ka of 101000 M⁻¹ s⁻¹ and a kd of 6.36e-05 s⁻¹.
B2 gave a KA of 1.56e+09 M⁻¹, a ka of 106000 M⁻¹ s⁻¹ and a kd of 6.8e-05 s⁻¹.
Taken in the same sequence, the figures for B3 were 3.1e+09 M⁻¹, 201000 M⁻¹ s⁻¹ and 6.47e-05 s⁻¹.
Taken in the same sequence, the figures for B4 were 2.62e+09 M⁻¹, 146000 M⁻¹ s⁻¹ and 5.59e-05 s⁻¹.

The same assay, now with this note: euk; periplasmic fractions, 29B11 chain shuffled.
B5 returned a KA of 5.55e+09 M⁻¹, a ka of 440000 M⁻¹ s⁻¹ and a kd of 7.93e-05 s⁻¹.
In the same order, the values of B6 are 6.34e+09 M⁻¹, 414000 M⁻¹ s⁻¹ and 6.53e-05 s⁻¹.
Taken in the same sequence, the figures for B7 were 3.54e+09 M⁻¹, 849000 M⁻¹ s⁻¹ and 0.00024 s⁻¹.

The same assay, now with this note: purified chain-shuffled Fabs.
In the case of B8, the “Koff eukIL-6” value was found to be 0.0002 s⁻¹.
Same read-out and setting: as for B9, the figure is 0.00077 s⁻¹.

For the next assay, the target named is T2, bacterially produced human IL-6 (Homo sapiens, UniProt P05231).
T2 construct: His
T2 sequence (P05231 30-212): as above
The experiment in a line: Surface plasmon resonance (Biacore), bacterially produced human IL-6 coated on CM5 chip. In kind it is binding. Conditions: bact; periplasmic fractions, 28A6 chain-shuffled. The procedure:
as §1, §2, §3
B1 returned a KA of 2.78e+09 M⁻¹, a ka of 188000 M⁻¹ s⁻¹ and a kd of 6.76e-05 s⁻¹.
Taken in the same sequence, the figures for B2 were 2.93e+09 M⁻¹, 206000 M⁻¹ s⁻¹ and 7.04e-05 s⁻¹.
Taken in the same sequence, the figures for B3 were 3.29e+09 M⁻¹, 228000 M⁻¹ s⁻¹ and 6.94e-05 s⁻¹.
In the case of B4, the KA worked out at 3.18e+09 M⁻¹, the ka came to 193000 M⁻¹ s⁻¹ and the kd came to 6.09e-05 s⁻¹.

The same assay, now with this note: bact; periplasmic fractions, 29B11 chain shuffled.
B5 displayed a KA of 7.6e+09 M⁻¹, a ka of 561000 M⁻¹ s⁻¹ and a kd of 7.38e-05 s⁻¹.
Taken in the same sequence, the figures for B6 were 7.28e+09 M⁻¹, 489000 M⁻¹ s⁻¹ and 6.72e-05 s⁻¹.
In the same order, the values of B10 are 1.43e+09 M⁻¹, 262000 M⁻¹ s⁻¹ and 0.000184 s⁻¹.
Taken in the same sequence, the figures for B7 were 3.56e+09 M⁻¹, 1.12e+06 M⁻¹ s⁻¹ and 0.000315 s⁻¹.

Staying with this assay, now noted: purified chain-shuffled Fabs.
Turning to B9, the “Koff HIS-huIL-6” value was 0.00088 s⁻¹.

The target of a further assay is T3, cynomolgus monkey IL-6 (Macaca fascicularis, UniProt P79341).
T3 construct: His
T3 sequence (P79341 28-212): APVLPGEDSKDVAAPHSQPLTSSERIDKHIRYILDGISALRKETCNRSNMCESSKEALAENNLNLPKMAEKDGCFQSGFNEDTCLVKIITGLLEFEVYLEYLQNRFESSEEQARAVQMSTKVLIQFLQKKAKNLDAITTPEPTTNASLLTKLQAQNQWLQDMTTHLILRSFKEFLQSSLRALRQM
The assay can be described thus: Surface plasmon resonance (Biacore), cynomolgus monkey IL-6. Type of assay: binding. Particulars: cy/cyno; periplasmic fractions, 28A6 chain-shuffled. As for the experimental part: as §2
In turn, B1 had a KA of 1.77e+09 M⁻¹, a ka of 144000 M⁻¹ s⁻¹ and a kd of 8.17e-05 s⁻¹.
Taken in the same sequence, the figures for B2 were 1.18e+09 M⁻¹, 112000 M⁻¹ s⁻¹ and 9.46e-05 s⁻¹.
Taken in the same sequence, the figures for B3 were 3.2e+09 M⁻¹, 285000 M⁻¹ s⁻¹ and 8.9e-05 s⁻¹.
Taken in the same sequence, the figures for B4 were 2.1e+09 M⁻¹, 145000 M⁻¹ s⁻¹ and 6.88e-05 s⁻¹.

Still in this assay, the particulars now being: cy/cyno; periplasmic fractions, 29B11 chain shuffled.
B5 returned a KA of 1.25e+09 M⁻¹, a ka of 475000 M⁻¹ s⁻¹ and a kd of 0.000381 s⁻¹.
With B6, the KA was determined as 1.39e+09 M⁻¹, the ka amounted to 468000 M⁻¹ s⁻¹ and the kd was 0.000336 s⁻¹.
B10 had a KA of 4.1e+08 M⁻¹, a ka of 180000 M⁻¹ s⁻¹ and a kd of 0.00044 s⁻¹.
Taken in the same sequence, the figures for B7 were 6.48e+08 M⁻¹, 851000 M⁻¹ s⁻¹ and 0.00131 s⁻¹.

The assay is the same for the next values; noted with them: purified chain-shuffled Fabs.
On to B8, for which the “Koff HIS-cyIL-6” value amounted to 0.00017 s⁻¹.
Take B9: the “Koff HIS-cyIL-6” value worked out at 0.00078 s⁻¹.
